Results as given in patent publication US9724426B2, “Agents, uses and methods” (AFFINICON APS, priority 2009, dated 2017).
Positions count from the first letter of the chain named.

Legend:
[1] = tested on: LPS mediated TNFα stimulation; assay: Rat in vivo LPS model; set-up: species or system Lewis rats; conditions: i.v., challenged with LPS; 2 hours post LPS
[2] = tested on: collagen-induced arthritis
Protocol: The effect of dexamethasone on arthritis development in the rat CIA model was tested at three dosages (0.01, 0.1 and 1 mg/kg). Dexamethasone was administered intravenously on day 10 (day of disease onset), 13, 16 and 19. Dexamethasone conjugate produced as described in Example 5 was tested at 0.01 mg/kg using the same treatment regimen as for dexamethasone. Treatment with vehicle (PBS/2.5% EtOH) served as negative control. Rats were sacrificed 21 days after immunization.
Collagen arthritis was induced in 9 weeks old female Lewis rats using a two-step immunization protocol. […]
Rats were evaluated 6 times per week (once during weekends) for arthritis severity using a macroscopic scoring system of 0-4 for each paw as detailed below: • 0=no signs of arthritis • 0.5=unloading of the paw and/or light redness of ankle joint • 1=redness and mild swelling of the ankle joint • 2=redness and swelling of paw • 3=severe redness and swelling of entire paw including digits • 4=maximally swollen paw, often involvement of multiple joints and extending towards knee joint.
The total clinical score of an individual rat is defined as the sum of the clinical scores of all four paws for each day. At the end of the study, the cumulative arthritis score was calculated for each rat. […]
The swelling of the hind paws was measured during weekdays with a laser scan micrometer (Mitutoyo, LSM-503S/6200). […]

CD163 [3] = molecular target: T1, CD163 (Homo sapiens, UniProt Q86VB7); assay: scFv ELISA; format: binding; conditions: two-fold dilution series
Protocol: A nunc Maxisorp ELISA plate (NUNC, Roskilde, Denmark) was coated with 50 μl/well of 2 μg/ml of CD163 (purified as described in (2)) over night at 4° C. The coated plate was washed 3 times in PBS and blocked for 1 hour with 3% BSA in PBS. Fractions from scFv purification were tested by adding 100 μl/well of a 1:10 dilution of each sample in 1% BSA, PBS. The refolded protein sample was added directly to the wells (100 μl/well) and two-fold dilution series was made with dilution in 1% BSA in PBS. After 1 hour incubation at 4° C. the plate was washed 3 times in PBS again. Secondary detection was made with a 1 hour incubation of a HRP conjugated anti-His antibody (Sigma-Aldrich, Brøondby, Denmark) (1:4000 diluted in 1% BSA, PBS). After washing 3 times in PBS the ELISA was developed with […] TMB substrate (Invitrogen, Taastrup, Denmark). The reaction was stopped with 40 μl/well of 1 M H2SO4 and the plate was read in an ELISA reader at 450 nm.

CD163 [4] = molecular target: T1, CD163; assay: ELISA antibody reactivity comparison; format: binding
Protocol: A nunc maxisorp plate was coated with the following (50 μl/well) over night at 4° C.: 4 μg/ml goat anti-human kappa chain antibody (AbD Serotec, Oxford, UK) and ˜4 μg/ml human CD163 (purified as described in 8). Buffer was carbonate buffer, pH 9.0. Each measurement was made in duplicate.
4) After blocking, the primary antibody was added (100 μl per well).
For CD163 ELISA • 100 μl/well of goat anti human IgG (H&L) HRP 1:6000 in PBS containing 1% BSA. • For Mac2-158 goat anti-mouse HRP 1:2000 in PBS containing 1% BSA is added to the wells 7) Step 1 was repeated 8) The ELISA was developed by adding 75 μl of TMB substrate to each well. Incubation was performed for 3 min. 9) The reaction was stopped by adding 30 μl 2 NH2SO4 to the wells. 10) The plate was read in an ELISA reader at 450 nm.
Background was measured on wells with no coating and wells with no primary antibody.

CD163 [5] = molecular target: T1, CD163; assay: Fab fragment activity measured by ELISA; format: binding
Protocol: A nunc maxisorp plate was coated with ˜1 μg/ml human CD163 (purified as described by Kristiansen, M. et al. ((2001). Identification of the haemoglobin scavenger receptor. Nature 11:409(6817): 198-201)) was added at 50 μl/well and incubated over night at 4° C. Buffer for coating was carbonate, pH 9.0. Each measurement was made in duplicates.
The primary antibody samples used in ELISA was undiluted supernatant or 30 times concentrated supernatant from transfected cells or antibody standard 100 ng/ml KN2/NRY antibody diluted in PBS containing 1% BSA. The supernatant was concentrated on VIVAspin centrifugal concentrator (10.000 MWCO) (Sigma-Aldrich, Brøondby, Denmark).
The ELISA steps were as follows: ELISA plates were washed 3 times in PBS and blocked with PBS containing 3% BSA for 1 h. After blocking the primary antibody samples were added to the wells (100 μl/well). 2 fold dilution series were made on all samples and standards (dilutions in PBS containing 1% BSA). The samples were incubated on the plates for 1 h. Subsequently, the plates were washed 3 times in PBS and secondary antibody goat anti human kappa chain HRP (AbD Serotec, Oxford, UK) 1:4000 in PBS containing 1% BSA (100 μl/well) was added to the wells. […] The plates were read in an ELISA reader at 450 nm.
Background was measured on both wells with no coating and wells with no primary antibody.

T1 sequence (Q86VB7 42-1156): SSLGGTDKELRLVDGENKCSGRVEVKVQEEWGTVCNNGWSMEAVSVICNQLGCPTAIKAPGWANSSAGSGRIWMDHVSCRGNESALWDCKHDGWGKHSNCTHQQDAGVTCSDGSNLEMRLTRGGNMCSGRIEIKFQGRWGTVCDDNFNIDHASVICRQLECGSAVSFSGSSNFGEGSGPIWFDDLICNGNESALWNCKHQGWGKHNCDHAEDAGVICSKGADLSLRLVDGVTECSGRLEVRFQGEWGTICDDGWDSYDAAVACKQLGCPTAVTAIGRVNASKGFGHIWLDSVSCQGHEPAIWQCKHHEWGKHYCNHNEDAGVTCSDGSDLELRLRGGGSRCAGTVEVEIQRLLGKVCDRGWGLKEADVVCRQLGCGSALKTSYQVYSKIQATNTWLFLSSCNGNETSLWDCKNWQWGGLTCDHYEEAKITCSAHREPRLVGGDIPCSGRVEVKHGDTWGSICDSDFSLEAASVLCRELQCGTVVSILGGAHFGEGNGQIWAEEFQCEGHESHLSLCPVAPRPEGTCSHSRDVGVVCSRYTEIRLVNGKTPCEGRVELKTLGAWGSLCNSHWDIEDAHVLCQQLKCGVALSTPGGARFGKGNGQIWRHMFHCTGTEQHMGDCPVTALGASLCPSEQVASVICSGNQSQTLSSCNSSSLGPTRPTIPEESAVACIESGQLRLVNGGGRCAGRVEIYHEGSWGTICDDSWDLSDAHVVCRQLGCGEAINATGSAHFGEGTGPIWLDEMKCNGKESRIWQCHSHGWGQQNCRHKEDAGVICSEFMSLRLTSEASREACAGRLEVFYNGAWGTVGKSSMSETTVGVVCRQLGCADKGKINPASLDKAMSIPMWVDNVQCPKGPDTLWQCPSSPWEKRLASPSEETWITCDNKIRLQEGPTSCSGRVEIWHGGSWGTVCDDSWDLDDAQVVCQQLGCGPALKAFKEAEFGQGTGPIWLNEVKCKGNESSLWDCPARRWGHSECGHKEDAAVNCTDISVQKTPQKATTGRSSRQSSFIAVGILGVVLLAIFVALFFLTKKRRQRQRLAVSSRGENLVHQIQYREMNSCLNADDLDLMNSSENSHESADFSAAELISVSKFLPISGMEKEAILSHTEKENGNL

CC1(C)O[C@@H]2C[C@H]3[C@@H]4C[C@H](F)C5=CC(=O)C=C[C@]5(C)[C@@]4(F)[C@@H](O)C[C@]3(C)[C@]2(C(=O)CO)O1 [fluocinolone, Fluocinolone acetonide]
TNFα level, lower compared to vehicle [1]: 5 times

C[C@@H]1C[C@H]2[C@@H]3CCC4=CC(=O)C=C[C@]4(C)[C@@]3(F)[C@@H](O)C[C@]2(C)[C@@]1(O)C(=O)CO [dexamethasone]
spleen and liver weights compared to the vehicle group ([2]; 0.01, 0.1 and 1 mg/kg groups): No significant differences | thymus weight compared to the vehicle group ([2]; 0.1 and 1 mg/kg groups, at sacrifice day 21): significantly decreased

B1: scFv: scFv (VH-15 residue linker-VL), SEQ ID NO: 77, expressed in E. coli and refolded (protein)
scFv: MDQVQLQESGPGLVKPSETLSLTCTVSGYSITSDYAWNWIRQFPGNKLEWMGYITYSGSTYYNPSLKSRVTISVDTSKNQFSLKLSSVTAADTATYYCVSGTYYFDYWGQGTTLTVSSGGGGSGGGGSGGGGSDIVMTQSPSSLSASVGDRVTITCRASQSVSSDVAWFQQKPGKSPKPLIYYASNRYSGVPSRFSGSGSGTDFTLTISSLQAEDFAVYFCGQDYTSPRTFGGGTKLEIKREQKLISEEDL
modifications: scFv sequence
dilution down to which signals were detected (CD163 [3]): 128 fold

B2: cgamma(6)/K8: chimeric heavy chain cgamma(6) paired with humanized light chain K8 (antibody)
VH: DVQLQESGPGLVKPSQSLSLTCTVTGYSITSDYAWNWIRQFPGNKLEWMGYITYSGITNYNPSLKSQISITRDTSKNQFFLQLNSVTTEDTATYYCVSGTYYFDYWGQGTTLTVSS
light: DIVMTQSPSSLSASVGDRVTITCRASQSVSSDVAWFQQKPGKSPKPLIYYASSLQSGVPSRFSGSGSGTDFTLTISSLQAEDFAVYFCGQDYTSPRTFGGGTKLEIKRTVAAPSVFIFPPSDEQLKSGTASVVCLLNNFYPREAKVQWKVDNALQSGNSQESVTEQDSKDSTYSLSSTLTLSKADYEKHKVYACEVTHQGLSSPVTKSFNRGEC
amount of antibody in sample to obtain the same reactivity as cgamma(6)/NRY (CD163 [4]): approximately twice as much antibody | reactivity towards CD163 in ELISA (CD163 [4]; supernatant from transiently transfected CHO-S cells): almost identical

B3: Fab fragment: Fab of KN2/NRY: heavy chain KN2 with P220 mutated to stop, SEQ ID NO: 82, with light chain NRY (antibody)
heavy: QVQLQESGPGLVKPSETLSLTCTVSGYSITSDYAWNWIRQFPGNKLEWMGYITYSGSTYYNPSLKSRVTISVDTSKNQFSLKLSSVTAADTATYYCVSGTYYFDYWGQGTTLTVSSASTKGPSVFPLAPCSRSTSESTAALGCLVKDYFPEPVTVSWNSGALTSGVHTFPAVLQSSGLYSLSSVVTVPSSSLGTKTYTCNVDHKPSNTKVDKRVESKYG
light: B2 light with S53N, L54R, Q55Y
ELISA signal and dilution series (CD163 [5]; 30× concentrated supernatant, standard 100 ng/ml KN2/NRY): comparable to the standard dilution series | ELISA signal (CD163 [5]; undiluted, non-concentrated supernatant): very small signal
